Where two headings read alike, the source gives them in different places. Each block holds one molecule with its values, some of them ahead of it. * marks the point of attachment. Palmitoyl = CCCCCCCCCCCCCCCC(=O)*; miniPEG = mini-PEG spacer unit
Experiments:
Experiment in all cases: cell-based or functional assay
CLR/RAMP2 receptor [1] = biological target: T1, CLR/RAMP2 receptor (UniProt Q16602 23-461; O60895 43-175, limits assumed)
[2] = biological target: T2, type 1 angiotensin II receptor AGTR1 (UniProt P30556 1-359, limits assumed)
T2 sequence (looked up): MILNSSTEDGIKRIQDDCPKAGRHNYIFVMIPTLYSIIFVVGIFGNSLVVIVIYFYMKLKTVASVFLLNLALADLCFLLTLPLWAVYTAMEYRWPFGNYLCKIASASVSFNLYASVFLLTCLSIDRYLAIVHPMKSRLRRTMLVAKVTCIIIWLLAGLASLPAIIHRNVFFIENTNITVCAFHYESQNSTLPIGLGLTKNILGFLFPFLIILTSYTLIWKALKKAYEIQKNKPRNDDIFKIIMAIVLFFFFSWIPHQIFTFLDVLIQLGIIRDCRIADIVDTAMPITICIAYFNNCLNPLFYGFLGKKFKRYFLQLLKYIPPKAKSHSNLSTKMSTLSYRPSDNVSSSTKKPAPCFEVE

CLR/RAMP1 receptor [3] = biological target: T3, CLR/RAMP1 receptor (UniProt Q16602 23-461; O60894 27-148, limits assumed)
CLR/RAMP2 receptor [4] = biological target: T1, CLR/RAMP2 receptor; remark: listed apart in the source
[5] = biological target: T2, type 1 angiotensin II receptor AGTR1; remark: listed apart in the source
CLR/RAMP1 receptor [6] = biological target: T3, CLR/RAMP1 receptor; remark: listed apart in the source
CLR/RAMP2 receptor [7] = biological target: T1, CLR/RAMP2 receptor; remark: listed apart in the source
CLR/RAMP1 receptor [8] = biological target: T3, CLR/RAMP1 receptor; remark: listed apart in the source
CLR/RAMP2 receptor [9] = biological target: T1, CLR/RAMP2 receptor; remark: listed apart in the source
CLR/RAMP3 receptor [10] = biological target: T4, CLR/RAMP3 receptor (UniProt Q16602 23-461; O60896 24-148, limits assumed)
CLR/RAMP3 receptor [11] = biological target: T4, CLR/RAMP3 receptor; remark: listed apart in the source
[12] = biological target: neurotensin receptor 1 (NTSR1) (UniProt P30989 1-418, limits assumed)
Chain of neurotensin receptor 1 (NTSR1) (P30989 whole entry): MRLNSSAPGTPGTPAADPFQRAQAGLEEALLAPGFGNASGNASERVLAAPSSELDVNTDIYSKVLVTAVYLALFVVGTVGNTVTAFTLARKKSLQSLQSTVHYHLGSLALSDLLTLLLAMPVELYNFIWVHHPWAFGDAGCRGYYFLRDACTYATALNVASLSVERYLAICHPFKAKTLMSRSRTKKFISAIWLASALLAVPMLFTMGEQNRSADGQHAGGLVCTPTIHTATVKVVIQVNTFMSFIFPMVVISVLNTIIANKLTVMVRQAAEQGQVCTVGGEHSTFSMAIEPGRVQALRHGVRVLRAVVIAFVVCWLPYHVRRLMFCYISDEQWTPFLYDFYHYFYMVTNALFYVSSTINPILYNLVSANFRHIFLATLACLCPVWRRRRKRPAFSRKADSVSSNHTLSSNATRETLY

T1 sequence (Q16602 23-461 limits assumed, chain 1 of 2): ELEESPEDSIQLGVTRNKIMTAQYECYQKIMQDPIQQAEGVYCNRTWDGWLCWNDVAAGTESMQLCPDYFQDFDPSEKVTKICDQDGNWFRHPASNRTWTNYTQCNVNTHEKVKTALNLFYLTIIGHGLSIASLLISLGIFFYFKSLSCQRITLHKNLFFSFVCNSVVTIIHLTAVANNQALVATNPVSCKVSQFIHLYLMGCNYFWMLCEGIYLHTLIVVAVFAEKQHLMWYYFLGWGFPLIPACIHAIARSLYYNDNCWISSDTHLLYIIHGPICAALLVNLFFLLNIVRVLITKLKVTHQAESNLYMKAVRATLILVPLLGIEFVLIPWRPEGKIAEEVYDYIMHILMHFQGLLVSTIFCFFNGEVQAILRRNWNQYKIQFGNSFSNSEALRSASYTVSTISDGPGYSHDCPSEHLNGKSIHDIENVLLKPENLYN
T1 sequence (O60895 43-175 limits assumed, chain 2 of 2): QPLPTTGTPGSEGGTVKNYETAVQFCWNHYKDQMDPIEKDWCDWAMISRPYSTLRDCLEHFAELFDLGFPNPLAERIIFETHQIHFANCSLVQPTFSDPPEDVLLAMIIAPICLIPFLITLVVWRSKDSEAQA
T4 sequence (Q16602 23-461 limits assumed, chain 1 of 2): as the sequence (Q16602 23-461 limits assumed, chain 1 of 2) above
T4 sequence (O60896 24-148 limits assumed, chain 2 of 2): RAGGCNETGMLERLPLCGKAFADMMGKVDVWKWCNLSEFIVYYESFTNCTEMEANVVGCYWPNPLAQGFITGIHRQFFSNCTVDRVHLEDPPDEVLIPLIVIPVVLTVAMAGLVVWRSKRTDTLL
T3 sequence (Q16602 23-461 limits assumed, chain 1 of 2): as the sequence (Q16602 23-461 limits assumed, chain 1 of 2) above
T3 sequence (O60894 27-148 limits assumed, chain 2 of 2): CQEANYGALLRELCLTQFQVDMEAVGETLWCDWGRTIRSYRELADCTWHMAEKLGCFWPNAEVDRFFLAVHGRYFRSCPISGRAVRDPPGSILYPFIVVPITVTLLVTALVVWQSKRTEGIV

CLR/RAMP2 Max Activity (% of positive controls) (CLR/RAMP2 receptor [1]): 100
Molecule: Wild type ADM positive (human ADM positive control) (from UniProt P35318 95-146) (peptide)

CLR/RAMP1 Max Activity (antagonist) (CLR/RAMP1 receptor [6]): 100 % of positive control
CLR/RAMP2 Max Activity (antagonist) (CLR/RAMP2 receptor [7]): 80 % of positive control
Molecule: Palmitoyl-KVQKLNFVPTNVGSKAF-NH2 [SEQ ID NO: 142]

CLR/RAMP1 IC50 (CLR/RAMP1 receptor [6]): 7.3 nM
CLR/RAMP2 IC50 (CLR/RAMP2 receptor [7]): 61 nM
CLR/RAMP3 IC50 (CLR/RAMP3 receptor [11]): 4.1 nM
Molecule: Palmitoyl-KVQKLAHQIYSAPVDPSSPHSY-NH2 [SEQ ID NO: 122]

CLR/RAMP1 Max Activity (antagonist) (CLR/RAMP1 receptor [6]): 43 % of positive control
CLR/RAMP2 Max Activity (antagonist) (CLR/RAMP2 receptor [7]): 14 % of positive control
Molecule: Palmitoyl-KVQNLSAPVDPSSPHSY-NH2 [SEQ ID NO: 141]

CLR/RAMP1 IC50 (CLR/RAMP1 receptor [6]): 5.8 nM
CLR/RAMP2 IC50 (CLR/RAMP2 receptor [7]): 85 nM
CLR/RAMP3 IC50 (CLR/RAMP3 receptor [11]): 9.2 nM
Molecule: Palmitoyl-KVQNLSHRLWQLMGPAGSAPVDPSSPHSY-NH2 [SEQ ID NO: 120]

CLR/RAMP1 IC50 (CLR/RAMP1 receptor [6]): 4.7 nM
CLR/RAMP2 IC50 (CLR/RAMP2 receptor [7]): 50 nM
Molecule: Palmitoyl-KVQKLAHQISAPVDPSSPHSY-NH2 [SEQ ID NO: 123]

CLR/RAMP1 IC50 (CLR/RAMP1 receptor [3]): 2 nM
CLR/RAMP1 Max Activity (antagonist) (CLR/RAMP1 receptor [3]): 102 % of positive controls
CLR/RAMP2 IC50 (CLR/RAMP2 receptor [4]): < 0.5 nM
CLR/RAMP2 Max Activity (antagonist) (CLR/RAMP2 receptor [4]): 87 % of positive controls
B1: SSTR2 and CLR/RAMP MRL (SEQ ID NO: 218) (peptide)
peptide: FCFWKTCTKVQKLAHQIYQFTDKDVAPRSKISPQGY
modifications: (D-Phe) at position 1 and (D-Trp) in (D-Phe)CF(D-Trp)KTCT; miniPEG before K(Pal); K(Pal); -NH2

CLR/RAMP1 Max Activity (antagonist) (CLR/RAMP1 receptor [6]): 95 % of positive control
CLR/RAMP2 Max Activity (antagonist) (CLR/RAMP2 receptor [7]): 103 % of positive control
CLR/RAMP3 Max Activity (antagonist) (CLR/RAMP3 receptor [11]): 102 % of positive control
Molecule: Pal-KVQKLAHQSAPVDPSSPHSY-NH2 [SEQ ID NO: 124]

CLR/RAMP1 IC50 (CLR/RAMP1 receptor [6]): 21 nM
CLR/RAMP2 IC50 (CLR/RAMP2 receptor [7]): 0.6 nM
CLR/RAMP3 IC50 (CLR/RAMP3 receptor [11]): 1.5 nM
Molecule: Palmitoyl-KVQKLAHQIYQFTDKDVAPRSKISPQGY-NH2 [SEQ ID NO: 119]

CLR/RAMP1 IC50 (CLR/RAMP1 receptor [6]): 3.2 nM
CLR/RAMP2 IC50 (CLR/RAMP2 receptor [7]): 4.9 nM
CLR/RAMP3 IC50 (CLR/RAMP3 receptor [11]): 1.8 nM
Molecule: Palmitoyl-KVQKLAHQIYQFTDKDSAPVDPSSPHSY-NH2 [SEQ ID NO: 121]

The next lines start with the molecule.

Molecule: RVYVHPAKGCRFGTCTVQKLAHQIYQFTDKDVAPRSKISPQGY (Sar at N-terminus (Sar-RVYVHPA); miniPEG before K(PAL); K(PAL); -NH2) [AGTR1 antagonist/CLR/RAMP agonist MRL (SEQ ID NO: 234)]
AGTR1 IC50 (calcium flux assay) [2]: 19.9 nM
CLR/RAMP1 EC50 (CLR/RAMP1 receptor [3]): 0.3 nM
CLR/RAMP1 Max Activity (CLR/RAMP1 receptor [3]): 132 % of positive controls
CLR/RAMP2 EC50 (CLR/RAMP2 receptor [4]): 1 nM
CLR/RAMP2 Max Activity (CLR/RAMP2 receptor [4]): 86 % of positive controls
AGTR1 IC50 (calcium flux assay) [5]: 20 nM

Molecule: miniPEG-KGCRFGTCTVQKLAHQIYQFTDKDSAPVDPSSPHSY-NH2 (cysteine pairing not given here; also: K(PAL) present, lysine not given here) [SEQ ID NO: 48]
CLR/RAMP1 EC50 (CLR/RAMP1 receptor [8]): 0.3 nM
CLR/RAMP2 EC50 (CLR/RAMP2 receptor [9]): 0.2 nM
CLR/RAMP3 EC50 (CLR/RAMP3 receptor [10]): 0.07 nM

Molecule: Ace-TVQKLAHRLWQLMGPDKDNVAPRSKISPQGY-NH2 [SEQ ID NO: 116]
CLR/RAMP1 IC50 (CLR/RAMP1 receptor [6]): 152 nM
CLR/RAMP2 IC50 (CLR/RAMP2 receptor [7]): 7.3 nM
CLR/RAMP3 IC50 (CLR/RAMP3 receptor [11]): 53 nM

Molecule: miniPEG-KGCRFGTCTVQKLAHQIYQFTDKDKDNVAPRSKISPQGY-NH2 (ends and bridges not checked; also: K(PAL), position not given here) [SEQ ID NO: 69]
CLR/RAMP1 Max Activity (CLR/RAMP1 receptor [8]): 70 % of positive control
CLR/RAMP2 EC50 (CLR/RAMP2 receptor [9]): 0.6 nM
CLR/RAMP3 EC50 (CLR/RAMP3 receptor [10]): 0.6 nM

Molecule: miniPEG-KGCRFGTCTVQKLAHQIYQFTDKDVAPRSKISPQGY-NH2 (ends and bridges not checked; also: K(PAL), position not given here) [SEQ ID NO: 101]
CLR/RAMP2 EC50 (CLR/RAMP2 receptor [9]): 0.3 nM
CLR/RAMP3 EC50 (CLR/RAMP3 receptor [10]): 0.5 nM

Molecule: XLYENKPRRPYILKGCRFGTCTVQKLAHQIYQFTDKDVAPRSKISPQGY (Pyr(glu)- at N-terminus; miniPEG between LYENKPRRPYIL and K(PAL); K(PAL); -NH2) [NTSR1 and CLR/RAMP agonist MRL (SEQ ID NO: 223)]
CLR/RAMP1 EC50 (CLR/RAMP1 receptor [3]): 0.8 nM
CLR/RAMP1 Max Activity (CLR/RAMP1 receptor [3]): 102 % of positive controls
CLR/RAMP2 EC50 (CLR/RAMP2 receptor [4]): 1 nM
CLR/RAMP2 Max Activity (CLR/RAMP2 receptor [4]): 70 % of positive controls

Molecule: Palmitoyl-KGCRFGTCTVQKLAHQIYQFTDKDVAPRSKISPQGY-NH2 (ends and bridges not checked) [SEQ ID NO: 103]
CLR/RAMP1 EC50 (CLR/RAMP1 receptor [8]): 4.5 nM
CLR/RAMP2 EC50 (CLR/RAMP2 receptor [9]): 0.7 nM
CLR/RAMP3 EC50 (CLR/RAMP3 receptor [10]): 0.3 nM

Molecule: miniPEG-K(Palmitoyl)VQKLAHQIYQFTDKDKDNSAPVDPSSPHSY-NH2 [SEQ ID NO: 78]
CLR/RAMP1 IC50 (CLR/RAMP1 receptor [6]): 4.8 nM
CLR/RAMP1 Max Activity (antagonist) (CLR/RAMP1 receptor [6]): 104 % of positive control
CLR/RAMP2 IC50 (CLR/RAMP2 receptor [7]): 34 nM
CLR/RAMP2 Max Activity (antagonist) (CLR/RAMP2 receptor [7]): 107 % of positive control
CLR/RAMP3 IC50 (CLR/RAMP3 receptor [11]): 0.8 nM
CLR/RAMP3 Max Activity (antagonist) (CLR/RAMP3 receptor [11]): 101 % of positive control

Molecule: Ace-VTHRLAGLLSRFTDKDKDNVAPRSKISPQGY-NH2 [SEQ ID NO: 115]
CLR/RAMP1 IC50 (CLR/RAMP1 receptor [6]): 1880 nM
CLR/RAMP2 IC50 (CLR/RAMP2 receptor [7]): 117 nM
CLR/RAMP3 IC50 (CLR/RAMP3 receptor [11]): 115 nM

Molecule: Palmitoyl-KGCRFGTCTVQKLAHQIYQFTDKDSAPVDPSSPHSY-NH2 (cysteine pairing not given here) [SEQ ID NO: 92]
CLR/RAMP1 EC50 (CLR/RAMP1 receptor [8]): 0.4 nM
CLR/RAMP2 EC50 (CLR/RAMP2 receptor [9]): 0.3 nM
CLR/RAMP3 EC50 (CLR/RAMP3 receptor [10]): 0.2 nM

Molecule: miniPEG-KGCRFGTCTVQKLAHQIYQFTDKDKDNSAPVDPSSPHSY-NH2 (cysteine pairing not given here; also: K(PAL) present, lysine not given here) [SEQ ID NO: 28]
CLR/RAMP1 EC50 (CLR/RAMP1 receptor [8]): 0.3 nM
CLR/RAMP3 EC50 (CLR/RAMP3 receptor [10]): 0.06 nM

B2: BDKRB1 antagonist and CLR/RAMP agonist MRL (SEQ ID NO: 231) (peptide)
peptide: KRPPGFSIKGCRFGTCTVQKLAHQIYQFTDKDVAPRSKISPQGY
modifications: Ace- at N-terminus; D/Nal in KRPPGFS-D/Nal-I; miniPEG before K(PAL); K(PAL); -NH2
CLR/RAMP2 EC50 (CLR/RAMP2 receptor [4]): 1 nM
CLR/RAMP2 Max Activity (CLR/RAMP2 receptor [4]): 46 % of positive controls

Molecule: MiniPEG-KVQKLAHQIYQFTDKDSAPVDPSSPHSY-NH2 (also: K(Pal), Lys not given here) [SEQ ID NO: 112]
CLR/RAMP1 IC50 (CLR/RAMP1 receptor [6]): 1.8 nM
CLR/RAMP2 IC50 (CLR/RAMP2 receptor [7]): 5.3 nM
CLR/RAMP3 IC50 (CLR/RAMP3 receptor [11]): 2.3 nM

B3: AGTRL1 and CLR/RAMP agonist MRL (SEQ ID NO: 228) (peptide)
peptide: XRPRLSHKGPLPFKGCRFGTCTVQKLAHQIYQFTDKDVAPRSKISPQGY
modifications: not fully specified; (Glp) at N-terminus; (Nle) in RPRLSHKGP(Nle)PF; miniPEG before K(PAL); K(PAL); -NH2
CLR/RAMP1 EC50 (CLR/RAMP1 receptor [3]): 0.6 nM
CLR/RAMP1 Max Activity (CLR/RAMP1 receptor [3]): 130 % of positive controls
CLR/RAMP2 EC50 (CLR/RAMP2 receptor [4]): 2 nM
CLR/RAMP2 Max Activity (CLR/RAMP2 receptor [4]): 74 % of positive controls

Molecule: MiniPEG-KVQKLAHQIYSAPVDPSSPHSY-NH2 (also: K(Pal), Lys not given here) [SEQ ID NO: 114]
CLR/RAMP1 IC50 (CLR/RAMP1 receptor [6]): 4.8 nM
CLR/RAMP2 IC50 (CLR/RAMP2 receptor [7]): 146 nM
CLR/RAMP3 IC50 (CLR/RAMP3 receptor [11]): 8.4 nM

B4: NTSR1 agonist and CLR/RAMP antagonist MRL (SEQ ID NO: 224) (peptide)
peptide: XLYENKPRRPYILKVQKLSAPVDPSSPHSY
modifications: not fully specified; Pyr(glu)- at N-terminus; miniPEG between LYENKPRRPYIL and K(Pal); K(Pal); -NH2
CLR/RAMP1 IC50 (CLR/RAMP1 receptor [3]): < 0.5 nM
CLR/RAMP1 Max Activity (antagonist) (CLR/RAMP1 receptor [3]): 99 % of positive controls
CLR/RAMP2 IC50 (CLR/RAMP2 receptor [4]): 1.5 nM
CLR/RAMP2 Max Activity (antagonist) (CLR/RAMP2 receptor [4]): 100 % of positive controls
NTSR1 EC50 (calcium flux assay) [12]: 26 nM
NTSR1 Max Activity [12]: 57 % of positive controls

Source: patent publication US20190153059A1 (ADEPTHERA, published 2019)
